Results on 15 sequences are retold here after a protein production outcome set (Wang et al. 2014).

This data set can be described thus: label from the status in PepcDB records.
Take “MRCGWLLGFLFLLSVLSYPRPAVAMTVLAEEYAPLSYSVDGQPRGFAVELFHELERRLALPPSDVTFMAWSRAYRLLLRGPRHAILFMGRTMEREDKVWFVGPIWVEDDYFYKKAGSHVAAATLDEARTVSRIGVVRDDFYQLRLQEMGFTNLDLGTSHEQGLRKLAQGRVDLVPMGELTAASQIANYPGLSMDSFERTDIHLLRSEMYIGFSRDMAWVEVERWQKALDHLRQDGTYDQILRKFVPQWRSR”: the protein production result is reported as “failed”.

Regarding “MDGRMDATTRMTLSVGALMFRMIWFPAPHWTHAARMTASTFRRYGFGLLSLVLLVLPSRLAAQDYEVPTVTDTYALQNARVVQAPGQVLESATVVVRDGVIDAVGPDAEVPYDARTIEADSLVVYAGFIDGLSHAGVEMPEGEDTDVEDPGNPPPDAAGIQPDRSVRPFLSPDESALQSLRKAGFTLGHVAPEGQMLPGASAHVFYGGETANDMVLEAGPTLFAQLQTADGYVYPATGMAVIAQMRQLYREAERRQQLEAAYERDPTGRPQPPQDPQHSALFSVLDGEQPLAFYADEALSLHRILALHQELDFPLVLAGLGESHELVDALQAVDAPLFLTLDLPEEPTRSTGQDTTTADTTSTPSRYYNPDLQVPSHETVAEEEENLELRHAMERQDYLETAATLHDAGLEFGFTTREADPGDVRGNLRTMIDQGLPEQTALAALTTRPAAQLGLDDRLGTVEAGKIANLVVTDGSYFAEDTKVTHVFVDGRLYDYSADGSDEGEVSGDVSAVLGTWSYTLDTPQGELSGEVTIEGDQSGLDGTFVGPQGDEQPLQSVSFDGTTLSFTVDSPQGGSVSVSVTVEGDTFDGSASTSGGSFPISGERTSGPNATQK”, the protein production result is reported as “failed”.

“MAAPSGVPPMRVLEELGINLSPTGEVTETEAVAAEGAYYLEQVTITETSEDECEYEEIPDDNFSIPEGEEDLAKAIHMVDEQATDTHILEQQTILPSRHVMQEAIEDFLCNFLIKMGMTRTLDCFQAEWYELIQKTGSDLRTLGNVPDVYSQVMLLETENKNLKKDLKHFKQAAEKAKEDLLKTQKERDFHRMHHKRILQEKNKLIADLKGLKLHYASYEPTIRVLHEKHHALLKEKMLTSLERDRAVGKISGLQATLKNIDIGHIQVPVIKGSYETASILRELGDKAGHTYEKENSSEGPTQKNLREAREENGYKTKMKSERKDSEFPVDMQPDPNLTACTESLPTAKFDYRLNNIFRLHELPVSCICTHSVRDTMILCSEVRMWAGVGMDSGSISITPSGISRWISGCCDHPNRSWLLTSNGNRTLSLWELPEGKCTLTLQSLCQHHHFIWSCSWHICSRCAAQSSYRSTPKVWFLSVERCRYTLYGHTDSVNSIEFFPFSNTLLTASADKTLSVWDARTSHCQQSLYGHIRNIHIVKFTTPRLRGHILASCDSRGVIKLWDFRKLIPIVSIDVGPSPGNEVNFDPSGRVLAQASANGIIHLLDLKSGQIHKLVGHESEVHTVIFSHRAENLYSGGSDGTIRLWL”: the protein production entry is on record as “failed”.

Consider “MHATTLPSGIRAGRHERTPPPMTVQTGQTRQTRSRTWTRVTGTAAVVAAALTATVTPSVAAPAETPPASVTAAAADVGYDTWQRDCRAVMDAALPYLKERIAGSAPGEKQAVVLDIDNTSLETDFGFSYPQPANRPVLEVAEYAQEHGVALFFVTARPGIIEAPTEWNLAHAGYESSGLYVRGFLDLFKDVAEYKTEQRAEIESKGYTIIANIGNSASDLSGGHAEKTFKLPDYDGQLS”, for which the protein production entry was “failed”.

With “MFRALKDKKRFIRNLILTFIIFLFIFLLYQFEAFRDIIFIVLVSGIFAYILKPLYRFLCERTKINKNFLAMAIVLSVIFLILFFLTVLIPSMFKEGESFDGLINGIEFFINDLIMKMKFMELGIFDVIEAQVTEKLNILLVSFATSIINNLISFSENILAFAVIPVLAYYFLAYGDLLSNKFLYCCPMEKRALLKNLGRDVDKVLGKYILGQLLLSLLVGVMTFIGMLILGIKFPLLLAFLNALLNIIPYFGAVLGAIPAIVVALVEGPNKILWVILTFLIIQQIEGNLIAPKITAESIDMHPILIIILLLIGEQIGGLLGMVFIVPIAVVIKVLFDDWDYYMFL”, the protein production entry was “failed”.

For “MVQRITIAPQGPEFSRFVMGYWRLMDWNMSARQLVSFIEEHLDLGVTTVDHADIYGGYQCEAAFGEALKLAPHLRERMEIVSKCGIATTAREENVIGHYITDRDHIIKSAEQSLINLATDHLDLLLIHRPDPLMDADEVADAFKHLHQSGKVRHFGVSNFTPAQFALLQSRLPFTLATNQVEISPVHQPLLLDGTLDQLQQLRVRPMAWSCLGGGRLFNDDYFQPLRDELAVVAEELNAGSIEQVVNAWVLRLPSQPLPIIGSGKIERVRAAVEAETLKMTRQQWFRIRKAALGYDVP”, the protein production result is on record as “not failed”.

Regarding “MSDKRDARFYQEVLDICLTAGRLMIEGGSEMYRVEDTMLRIARNADINDPRVFATPTCVFMSLDGGKLSQMKQIRDRNINLELVDRVNELSREFATKKIDLSELKNRIIEVANAPSFPMWMQIIGAAVLSATLMVLFMDDYDWVDFPGAALVGAIGFWAYYEFKKYTKVRFLSELIAAMIMGVLALGLNYLYPKMIIDNILIGALMTLVPGLAMTNALRDLFMGDLLSGIVRMCEAILSALALGGGVGLVLKFVGG”, the protein production result is “failed”.

As to “MSNFFSVRIETLGCRLNQVESEALAVRFAECGFDVFSKEAETSILPVKLCIVNTCTVTGKAEQKARRLIRLLLKEHEESVILVTGCYAELEADSIEKINKRIIAFSGKKKDELDGLPQFLKDSCLKNKDLKEDTVNLKKNLLIFRNEIYAKEDQQDKSFLLKETERRKSMFKLSSPVFVFHSRASLKIQDGCNNACAYCRIRLARGTSVSLPAEEAVRRIVQIEKNGAAEVVLSGVNLSQYRDETYGGFANLLAKLLENTKKIRLRISSMYPECVDDGILEIVANKRICPHFHLSIQSGSDKILKAMNRPYREADIRMAINNLRKAKDNPFIGCDIITGFPSETEEDFLQTFKMCEDLKIPGIHVFPFSARPGTKAFSMRPKVPEREAGRRASLLSELSGKNYQSYLASCNGKLFFGVIEKPQNNEDLRIVTENYLSLPLVVNKKAENYKGGEGLFVVIKDGNAYLAD”, the protein production result is recorded as “failed”.

Take “MNGYVYLVGAGPGDEGLITKKAIECLKRADIVLYDRLLNPFFLSYTKQTCELMYCGKMPKNHIMRQEMINAHLLQFAQEGKIVVRLKGGDPSIFGRVGEEAETLAAANIPYEIVPGITSSTAASSYAGIPLTHRNYSNSVTLLTGHAKGSLTDHGKYNSSHNSDTIAYYMGIKNLPTICKNLRQAGKKEDTPVAVIEWGTTGKQRVVTGTLSTIVSIVKNENISNPSMTIVGDVVSLRDQIAWKEHKPLHGKKVLFTSATNKTSVMKQKLQEAGAEIYQIPTFKKEEYTLTLEQIIEIFNVNRLVFCSAESVEILMQSCSKYKKDIRSLQAELQHMNVATQEKLMQYGLLSKEAKFSSDTTVYLGRNINRIAFIQEKIGAGSYMMTHKYTIDHRFDEVHSRMLSEFLWDSIVFEGRASIDTFLAEVKRLGFLDIVTLPFSYTDVPTLRYANKVGFHNIDHQLQETLMQKDMVRQ”: the protein production result is reported as “failed”.

Consider “MTPEALSFWTQADKPFLFLAACIELTNALAYGPGYVCGLPCSWDGSCSGAQHLCAATRSEDAWKVNLIGNDEVHDLYTIVGNAAKQSMARDTDPMVSTILAYEGDWRKVFKRNTMTTFYGSKGFGMAQQHMDDLMEPLSREVMQKKRAKHPFGQTRKEHHAASRLLAAHAAAAIKGEIPLAIKAMEFIQKLSAMMAHEGKPLEWTTPIGLPWSNRYHDPVTERVNLWMHDHGVRRPFRPVVADGYKKTINKNHSVNGSAPNFVHACDAAHLLRTVNAARAEGITQFALVHDSFGSLPSHAARFRQIIREEFVRMYEEHDVLTEVLEQAKCDLDEHNDKLSALVDMRADLTGKLNIKEVLNAEYAFAYPKLSEPDTKGEYADGKYKTEGTATEDYTERFQEEIQKVADDNFPGKKNVHLPWKETKEGDIAFIFKNPKKKPILTDSRGKPLKEGTVIRGGSKIRIAGVIAAWEKGAKRGVSLWPDAVRVIKLSEGFDANAAFGAAEDGFNADDYEPTNFGNDGEDADNDADDAEAGDDAFKLLEHHHHHH”, for which the protein production result is “not failed”.

On to “MSEKKAVIGVVTISDRASKGIYEDISGKAIIDYLKDVIITPFEVEYRVIPDERDLIEKTLIELADEKGCSLILTTGGTGPAPRDVTPEATEAVCEKMLPGFGELMRQVSLKQVPTAILSRQTAGIRGSCLIVNLPGKPQSIKVCLDAVMPAIPYCIDLIGGAYIDTDPNKVKAFRPKK”, for which the protein production entry is on record as “not failed”.

Take “MHLNTLAGRSYNDLMQYPVFPWILADYDSEEVDLTNPKTFRNLAKPMGAQTDERLAQYKKRYKDWEDPNGETPAYHYGTHYSSAMIVASYLVRMEPFTQIFLRLQGGHFDLADRMFHSVREAWYSASKHNMADVKELIPEFFYLPEFLFNSNNFDLGCKQNGTKLGDVILPPWAKGDPREFIRVHREALECDYVSAHLHEWIDLIFGYKQQGPAAVEAVNVFHHLFYEGQVDIYNINDPLKETATIGFINNFGQIPKQLFKKPHPPKRVRSRLNGDNAGISVLPGSTSDKIFFHHLDNLRPSLTPVKELKEPVGQIVCTDKGILAVEQNKVLIPPTWNKTFAWGYADLSCRLGTYESDKAMTVYECLSEWGQILCAICPNPKLVITGGTSTVVCVWEMGTSKEKAKTVTLKQALLGHTDTVTCATASLAYHIIVSGSRDRTCIIWDLNKLSFLTQLRGHRAPVSALCINELTGDIVSCAGTYIHVWSINGNPIVSVNTFTGRSQQIICCCMSEMNEWDTQNVIVTGHSDGVVRFWRMEFLQVPETPAPEPAEVLEMQGPLSHPHPNPIEVRNYSRLKPGYRWERQLVFRSKPTMHTAFDRKDNAHPAEVTALGISKDHSRILVGDSRGRVFSWSVSDQPGRSAADHWVKDEGGDSCSGCSVRFSLTERRHHCRNCGQLFCQKCSRFQSEIKRLKISSPVRVCQNCYYNLQHERGSEDGPRNC”: the protein production entry is “failed”.

Take “MEASMERFDNAPETALAWHRQGLGAALATVVETWGSAPRRVGAQLVIGGDGRIEGSVSGGCVEGAVIVEALEALEEGQARLLEFGVSDEDAFAVGLACGGTIRVLVEPVGQVLSEVMLAELVAARASRQALAYVVDTARGTRALVRDAYPERMRMDRSGFDEDGRTFVAVHNPPLRLIVVGAVHIAQALVPMARIAGYDPVVIDPREAFASDARFPGETILHDWPDEAVAKLGLDARTALVLLTHDPKLDDPALEAALAADVFYIGALGSTRTHAKRVARMQEAGFTEAQIGRIHGPVGLDIGAAGPAEIAVAILAQMTAVLRGRA”: the protein production entry was “not failed”.

Regarding “MNKKKKKRTPKPINLNELEEKINILNFMKNDFEIVLQKENEKHSEVSIQYTNKEESSTLERERINIILKELIISCNEKKEHLNNYIKVAKDIIQKNNETIEKEKNDIDKLILQKDEQIKDVEKKIVIVQNFYKDINKGIIQLINNLEVYLRNKMNINIDIKKMNDKTIELTNVQKLNKQQECKENEFKNILYMSIDKYNEQISIIRTFIKKIKLKQEIDVIKEDNIINTNDDILREPSNNTNEQKEQSHKYDYSHDENENNNFRKYEMINIEEENDKENNVKGDNKLIINKNNVDSFDEDDSYDEDDSCDEDNSCDEDNSCGEVNSCGEDDSYDEDDSYDEDDSYDEDNSYDEDNSYDEDNRCGEKLEKEQLHNLQDDKKNYTLKKNINETLLSSLDDDESKFSSSNSDTTKSFEVYKNKEKDKDKEIYNYLYSEEETYEQKKNNESSNSDDDDNKKEHFIKKFTTLKTNKNILNEDVQFLMDKIKKIDYDYISYFEKKLKYK”, the protein production result was “failed”.

With “MDSSSLEQELRWMKLVWEEAPGDKTEGPLTSPGWSTLFQAVWWGAPSLVMQLLRQGSSVEERDHTGRTPLHLAVMRGHAPLVRLLLQRGALAGAADHTGRTPLHEAAWHGHSNVAELLLRRGASAAACSQTGLTPLHGAAALGRTLLVTSFTVASDSGSDVKDVRGWTAAHWAAACGQLAVLELLSAGGNADLDGALLVSAIAGSTSSLQLLLTLGAKVDTQDSTGATALGLAAGLGHHQMLFFLCCLKKKQERKTHCWDWPLANLDPLEEQKLQELSIPRNLASVPAGGWTPSPGYIFRTVDTFVHGQLMPTEERTTECSLAVSVDLISVRDCSPSPPAGFPPVSALTIHPRADGLAQRN”, the protein production result was “failed”.
